We go through 1 molecule from patent US20240254223A1 (published 2024).

This test has as its target His-tagged human CD47 (human, UniProt Q08722 19-139).

His-tagged human CD47, sequence (Q08722 19-139): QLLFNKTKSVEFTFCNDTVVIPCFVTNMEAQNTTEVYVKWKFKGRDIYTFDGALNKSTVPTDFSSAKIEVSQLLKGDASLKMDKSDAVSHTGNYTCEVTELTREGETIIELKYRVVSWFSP

B1: pNOVI V2K K33 (antibody, V domains shown)
VH: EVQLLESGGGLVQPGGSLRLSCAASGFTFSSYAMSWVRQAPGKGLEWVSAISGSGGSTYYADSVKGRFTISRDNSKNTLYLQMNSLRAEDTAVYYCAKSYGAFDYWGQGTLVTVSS
VL: DIQMTQSPSSLSASVGDRVTITCRASQSISSYLNWYQQKPGKAPKLLIYAASSLQSGVPSRFSGSGSGTDFTLTISSLQPEDFATYYCQQFHKRSPQKFGQGTKVEIKR
Broadly, the Kd is the free concentration of one partner at which half of the binding sites on the other are occupied at equilibrium, for simple one-to-one binding. The low end stands for tighter binding, the high end for weaker binding. B1: the equilibrium dissociation constant (Kd) was determined as 56 nM.
